The series in a line: yeast display, Sf9 membrane polyspecificity reagent, FACS + sequencing; frameworks hold sequencing errors. In a few lines:
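A synthetic nanobody library was expressed on Saccharomyces cerevisiae BJ5465 by galactose induction for 36–48 hours. The library was stained for 1 hour at 4 °C with 10% biotinylated, detergent-solubilized Sf9 membrane reagent and enriched with streptavidin microbeads before FACS. Low and high (top ~1%) gates were set on anti-HA fluorescence for expression and streptavidin fluorescence for reagent binding, and each polyreactivity label reflects the gate of origin.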
For “QVQLVESGGGLVQAGGSLRLSCAASGLTFYSYAMGWYSPAPGKERELVAAITSSGSITYYADSVKGRFTISRDNAKNTVYLQMNSLKPEDTAVYYCAARPYRVRGQRFEGNYWGQGTQVTVSS”, the “polyreactivity (PSR sort gate)” value is on record as “high polyreactivity”.
Consider “QVQLVESGGGLVQAGGSLRLSCAASGLTFYTYAMGWYRQAPGKERELVAAISSGGSTNYADSVKGRFTISRDNAKNTVYLQMNSLKPEDTAVYYCAADPSYYTYFSFDLSESDYWGLGTQVTVSS”, for which the “polyreactivity (PSR sort gate)” value is reported as “low polyreactivity”.
Next, “QVQLVESGGGLVQAGGSLRLSCAASGLTFYTYAMGWYRQAPGKERELVAAITYSGGRTSYADSVKGRFTISRDNAKNTVYLQMNSLKPEDTAVYYCAARTLGRRLDYGYWGQGTQVTVSS”: “low polyreactivity”.
Next, “QVQLVESGGGLVQAGGSLRLSCAASGLTFYVNAMGWYRQAPGKEMELVAAITRGGSTNYADSVKGRFTISRDNAKNTVYLQMNSLKPVDTAVYYCNARKRYHSRYSGGYREGYWGQGTQVTVSS”: “low polyreactivity”.
In the case of “QVQLVESGGGLVQAGGSLRLSCAASGLTFYVYAMGWYRQAPGKERELVAAISGRGGRTYYADSVKGRLTISRDNAKNTVYLQMNSLKPEDTAVYYCNRDYAVFSYGEYDSWGQGTQVTVSS”, the “polyreactivity (PSR sort gate)” value is reported as “high polyreactivity”.
Regarding “QVQLVESGGGLVQAGGSLRLSCAASGLTFYVYAMGWYRQAPGKERELVAAISSGGRTYYADSVKGRFTISRDNAKNTVYLQMNSLKPEDTAVYFCAAVRHRNYGYWGQGTQVTVSS”, the “polyreactivity (PSR sort gate)” value is listed as “high polyreactivity”.
Next, “QVQLVESGGGLVQAGGSLRLSCAASGLTFYVYAMGWYRQAPGKERELVAAISSGGRTYYADSVKGRFTISRDNAKNTVYLQMTSLKPEDTAVYYCAAVRHRNYGYWGQGTQVTVSS”: “high polyreactivity”; “QVQLVESGGGLVQAGGSLRLSCAASGLTFYYYAMGWYRQAPGKERELVAAISATGGRTDYADSVKGRFTISRDNAKNTVYLQMNSLKPADPAVYYCAADTPYLRRRRGMDYWGQGTQVTVSS”: “high polyreactivity”.
Take “QVQLVESGGGLVQAGGSLRLSCAASGLTFYYYAMGWYRQAPGKERELVAAITGSGGRTSYADSVKGRFTISRDNAKNTVYLQMNSLKPEDTAVYYCAARNKRRGYPWQGQQKVLNFDYWGQGTQVTVSS”: the “polyreactivity (PSR sort gate)” value was “high polyreactivity”.
Next, “QVQLVESGGGLVQAGGSLRLSCAASGLTFYYYYTMGWYRQAPGKERELVAAISRSGSTNYADSVKGRFTISRDNAKNTVYLQMNSLKPEDTAVYYCARSYRSDGSRFGYWGQGTQVTVSS”: “low polyreactivity”.
Regarding “QVQLVESGGGLVQAGGSLRLSCAASGLTIFVNAMGWYRQAPGKERELVATISGGGSTYYADSVKGRFTISRDNAKNTVYLQMNSLKPEDTAVYYCNADVLFYTYYTRGRFDFDYWGQGTQVTVSS”, the “polyreactivity (PSR sort gate)” value was “low polyreactivity”.
In the case of “QVQLVESGGGLVQAGGSLRLSCAASGLTIKPNAMGWYRQAPGKERELVAAIDWSGGSTYCADSVKGRFTISRDNAKNTVDLQMNSLKPEDTAVYYCAADPPDRLFLYDYWGQGTQVTVSS”, the “polyreactivity (PSR sort gate)” value is “low polyreactivity”.
Turning to “QVQLVESGGGLVQAGGSLRLSCAASGLTIQRNDMGWYRQAPGKEREFVATITSNAGSTYYADSVKGRFTISRDNAKNPVYFQMNSLKPEDTAVYYWARERWWGGSDYWGQGTQVTVSS”, the “polyreactivity (PSR sort gate)” value is listed as “high polyreactivity”.
Next, “QVQLVESGGGLVQAGGSLRLSCAASGLTIQYNAMVWYRQAPGKERELVAAISRSGGSTYYADSVKGRFTISRDNAKNTEYLQMISLKPEDTAVYYCNKVSPYRGYYWGQGTQVTVSS”: “high polyreactivity”; “QVQLVESGGGLVQAGGSLRLSCAASGLTISTNAMGWYRQAPGKERELVAAISRAGSTYYADSVKGRFTISRDNAKNTVYLQMNSLKPEDTAVYYCAAKYRYSTYHRGSFNFWGQGTQVTVSS”: “high polyreactivity”.
As for “QVQLVESGGGLVQAGGSLRLSCAASGLTISWNAMGWYRQAPGKERELVAAISSRGGSTYYADSVKGRFKISRDNAKNTVYLQMNSLKPEDTAVYYCAAEGYTYYPVYSTRMYYWGQGTQVTVSS”, the “polyreactivity (PSR sort gate)” value is “low polyreactivity”.
Next, “QVQLVESGGGLVQAGGSLRLSCAASGLTISYYAMGRYRQAPGKERELVAAISTDSSTNYADSVKGRFTISRDNAKNTVYLQMNSLKPEDTAVYYCAAVPRGTQCAMDYWGQGTQVTVSS”: “low polyreactivity”; “QVQLVESGGGLVQAGGSLRLSCAASGLTITSNAMGWYRQAPGKERELVASITWSGGSTSYADSVKGRFTISRDNAKNTVYLQMNSLKPEDTAVYDCAADRQRSHRVGTKGHRVGYWGQGTQVTVSS”: “high polyreactivity”.
Next, “QVQLVESGGGLVQAGGSLRLSCAASGLTIWKYTMGWYRQAPGKERELVAAISISGTNTYYADSVKGRFTISRDNAKNTVYLQMNSLKPEDTAVYYCAAVRGYPPTNYYYWGQGTQVSVSS”: “high polyreactivity”; “QVQLVESGGGLVQAGGSLRLSCAASGLTIYAYAMGWYRQAPGKERELVAIISYNGGRTYYADSVKGRFTISRDNAKNTVYLQMNSLKPEDTAVYYCAARGREVRYDYWGQGTQVTVSS”: “high polyreactivity”; “QVQLVESGGGLVQAGGSLRLSCAASGLTLETNAMGWYRQAPGKERELVAGITYSGGTTYYADSVKGRFTISRDNAKNTVYLQMNSLKPEDTAVYYCNAQERRVRDYDYWGQGTEVTVSS”: “low polyreactivity”.
Turning to “QVQLVESGGGLVQAGGSLRLSCAASGLTLGSYALGWYRQAPGKERELVAAISRRSGRTYYADSVKGRFTISRDNAKNTVYLQMNSLKPEDTAVYYCNRGYTAQVYTEFDYWGQGTQVTVSS”, the “polyreactivity (PSR sort gate)” value was “low polyreactivity”.
Next, “QVQLVESGGGLVQAGGSLRLSCAASGLTLPYNAMGSYRQAPGKERELVAAITCIGGSTYYADSVKGRFTISRDNAKNTVYLEMNSLKPEDSAVYYCAKEVRGPIIYLEGYWGQGTQVTVSS”: “low polyreactivity”; “QVQLVESGGGLVQAGGSLRLSCAASGLTLSGYAMGWYRQAPGKERELVAAISSTGGSTYYADSVKGRFTISRDNAKNTVYLQMNSLKPEATAVYYCAKGYSPTRVRLRYPRYDTYNHWGQVTQVTVSS”: “high polyreactivity”.
“QVQLVESGGGLVQAGGSLRLSCAASGLTLSYTMGWYRQAPGKERELVASITWSGTRTYYADSVKGRFTISRDNAKNTVYLQMNSLKPEDTAVYYCARRSSYGSWGYNYWGQGTQVTVSS”: the “polyreactivity (PSR sort gate)” value is on record as “high polyreactivity”.
On to “QVQLVESGGGLVQAGGSLRLSCAASGLTLTYYAMGWYRQAPGKERELVAAISSSGGSTYYADSVKGRFTISRDNAKNTVYLQMNSLKPEDAAVYYCAATRVSWTGRDDYWGQGTQVTVSS”, for which the “polyreactivity (PSR sort gate)” value is on record as “high polyreactivity”.
Next, “QVQLVESGGGLVQAGGSLRLSCAASGLTLTYYAMGWYRQAPGKERELVAAISSSGGSTYYADSVKGRFTISRDNAKNTVYLQMNSLKPEDTAVYYCAATRVSWTGRDDYWGQGTQVTVSS”: “high polyreactivity”.
Next, “QVQLVESGGGLVQAGGSLRLSCAASGLTLVTIGMGWYSQAPAKERELVAAIDSTGGRTYYADSVKGRFTISRDNAKKTVYLQMTSLKPEDTAVSYCNRRWYARAAYWGQGTQVTVSS”: “high polyreactivity”; “QVQLVESGGGLVQAGGSLRLSCAASGLTLYGYTMGWYRQAPGKERELGATITTGGDYTYYADSVKGRFTISRDNAKNTVYLQMNRLKPVDTAVYYCAAYSYGWDYSYDYWGQVTQVTVSS”: “low polyreactivity”.
On to “QVQLVESGGGLVQAGGSLRLSCAASGLTLYQYSMGWYRQAPGKERELVAAIPTSGSTYFADSVKGRFTISRDNAKNTVYLQMNSLKPEDTAVYYCAADVYYVDTLSGYRYGYDYWGQCTQVTVSS”, for which the “polyreactivity (PSR sort gate)” value was “low polyreactivity”.

These data come from the nanobody polyreactivity screen of Harvey et al. (2022).
